Assay results: publication PMC9404881, “Simultaneous Maturation of Single Chain Antibody Stability and Affinity by CHO Cell Display” (Bioengineering, 2022)
Substitutions are numbered along the chain they refer to. Names may count otherwise.

B1: Anti-human TNFα wild-type scFv (soluble, His-tagged) (scFv, V domains shown)
VH: QLVQSGPELKKPGETVKISCKASGYTFTNYGMNWVKQAPGKGLKWMGWINTYTGEPTYADDFKGRFAFSLETSASTAYLQINNLKNEDSATYFCAGRRSYDYDVAMDYWGQGTSVTIS
VL: DIVLTQSPASLAVSLGQRATISCRASESVDSYGNYFMHWYQQKPGQPPKLLIYRASNLESGIPARFSGSGSGTDFTLTINPVEADDVATYYCQQSNEEPLTFGSGTKLEIK
notes: scFv from Jie Tang (Institute of Biophysics, CAS); Theoretical mass with His tag about 25 kDa; also called αTNFα; anti-TNFα WT scFv; source: 293F cells, transfected, supernatant purified on a nickel column; not shown: His6, C-terminal, kept
B2: Anti-TNFα scFv mutant A115V displayed on CHO cells (scFv, V domains shown)
VH: B1 VH with A105V
VL: B1 VL
notes: Most enriched clone of the maturation under normal conditions (37 °C culture, 4 °C labelling); Display construct as m4; not shown: transmembrane peptide (TM), C-terminal, kept
B3: Anti-TNFα scFv mutant G94R (soluble, His-tagged) (scFv, V domains shown)
VH: B1 VH with G96R
VL: B1 VL
notes: position 94 of the heavy chain in the Chothia scheme, right before heavy chain CDR3; Found by AID mutagenesis and sorting on thermo-resistant CHO cells; The base change is printed as G316A; also called G316A (base); G94R scFv; source: 293F cells, transfected, supernatant purified on a nickel column; not shown: His6, C-terminal, kept

Assays:
His-TNFα-GFP [1] = target: T1, His-TNFα-GFP (Homo sapiens, UniProt P01375, biotin (conjugated for the Octet measurement only)); experiment: BLI; ForteBio Octet; biotinylated TNFα-GFP (20 μg/mL) fixed on streptavidin (SA) biosensors; scFv in solution, 250-8000 nM for wild type and 31.25-1000 nM for mutant; association 120 s, dissociation 180 s; KD = Koff/Kon; conditions: both partners purified
T1 construct: TNFα, antigen of the anti-human TNFα scFv; The names His-TNFα-GFP and GFP-TNFα are both printed, so the side on which GFP stands is not certain; Probably the soluble form of TNFα (surmise); also called GFP-TNFα; source: E. coli containing the PET28a (+)-TNFα-GFP plasmid, purified with a Ni column

His-TNFα-GFP [2] = target: T1, His-TNFα-GFP; experiment: flow cytometry on cells; scFv displayed on CHO cells, labelled with TNFα-GFP and PE-conjugated anti-HA antibody for 1/2 h at 4 °C; with or without 5% BSA (antigen binding much reduced without BSA); conditions: one partner purified

T1 sequence (P01375 whole entry): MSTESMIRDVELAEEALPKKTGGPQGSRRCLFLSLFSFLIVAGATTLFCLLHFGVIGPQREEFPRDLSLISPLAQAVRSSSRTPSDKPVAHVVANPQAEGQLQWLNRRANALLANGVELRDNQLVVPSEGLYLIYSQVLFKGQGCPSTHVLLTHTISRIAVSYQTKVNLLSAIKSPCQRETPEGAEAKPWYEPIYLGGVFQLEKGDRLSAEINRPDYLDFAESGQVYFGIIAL

| Binder | Kd (His-TNFα-GFP [1]) [nM] | koff (His-TNFα-GFP [1]) [s⁻¹] | kon (His-TNFα-GFP [1]) [M⁻¹ s⁻¹] | binding result (His-TNFα-GFP [2]) |
| --- | --- | --- | --- | --- |
| B1 | 1550 | 0.00873 | 5620 | – |
| B2 | – | – | – | binds |
| B3 | 9.69 | 0.00159 | 164000 | – |
